Test results as given in publication PMC8837141, “Structural and Functional Differences between Homologous Bacterial Ribonucleases” (International Journal of Molecular Sciences, 2022).

Tests used:
[1] = target: balifase (Bacillus licheniformis); test: SEC; size-exclusion chromatography of the purified RNases; molecular weights from the elution profile of marker proteins; column and buffer not told
[2] = target: balnase (Bacillus altitudinis); test: as above
[3] = target: the molecule itself; test: dynamic light scattering; Zetasizer Nano ZS; RNase diluted with ultrapure water, filtered, sonicated for 2 min; particle size by volume distribution; ten runs of 30 s
[4] = target: the molecule itself; test: SEC; size-exclusion chromatography of the purified RNases; molecular weights from the elution profile of marker proteins; column and buffer not told

balifase (enzyme)
stoichiometry N [1]: 2

balnase (enzyme)
stoichiometry N [2]: 2

B1: binase (enzyme, Bacillus pumilus, UniProt P00649 54-162, looked up)
chain: AVINTFDGVADYLIRYKRLPDNYITKSQASALGWVASKGNLAEVAPGKSIGGDVFSNREGRLPSASGRTWREADINYVSGFRNADRLVYSSDWLIYKTTDHYATFTRIR
notes: binase, guanyl-preferring ribonuclease of Bacillus pumilus (~12 kDa), N1/T1/U2 family (IPR000026); also called RNase from B. pumilus; source: homogeneous protein preparation, obtained using previously described three-step procedure [19,30]
stoichiometry N [3]: 2

B2: barnase (enzyme, Bacillus amyloliquefaciens, UniProt P00648 48-157, looked up)
chain: AQVINTFDGVADYLQTYHKLPDNYITKSEAQALGWVASKGNLADVAPGKSIGGDIFSNREGKLPGKSGRTWREADINYTSGFRNSDRILYSSDWLIYKTTDHYQTFTKIR
notes: barnase, guanyl-preferring ribonuclease of Bacillus amyloliquefaciens; also called RNase from B. amyloliquefaciens; source: homogeneous protein preparation, obtained using previously described three-step procedure [19,30]
stoichiometry N [4]: 2
